Source: the supplement of paper PMC10724198
± gives the standard deviation of the averaged measurements.

Tests used:
Saccharomyces cerevisiae [1] = experiment: protein stability index of tFT-peptide fusion (C-terminal peptide) (PSI (0-1 scale)); higher = more stable (slower turnover)
Description: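 MPS profiling in S. cerevisiae of the tFT-X12 degron library: putative degron peptides plus stable controls, 12 aa, fused to the C-terminus of a sfGFP-mCherry timer. Cells are FACS-sorted into 8 mCherry/sfGFP bins and deep-sequenced. PSI runs from 0 (unstable) to 1 (stable). Backgrounds are wild type, das1Δ and doa10Δ at 30 °C, and wild type, das1Δ, cdc34-1 and cdc53-1 at 37 °C; 2-3 technical replicates each.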

Saccharomyces cerevisiae [2] = experiment: as above; conditions: genetic background: wild type; temperature: 30 C
[3] = genetic background: cdc34-1, temperature: 37 C
[4] = genetic background: cdc53-1, temperature: 37 C
[5] = genetic background: das1 deletion, temperature: 30 C
[6] = genetic background: das1 deletion, temperature: 37 C
[7] = genetic background: doa10 deletion, temperature: 30 C
[8] = genetic background: wild type, temperature: 30 C
[9] = genetic background: wild type, temperature: 37 C
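Further: PSI is a weighted mean of sequencing reads over stability bins, variants kept only with over 10 reads, mCherry proximal and sfGFP distal, peptide attached via GGGS linker.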

Row | Sequence | protein stability index (Saccharomyces cerevisiae [1]; [3]) | protein stability index (Saccharomyces cerevisiae [1]; [4]) | protein stability index (Saccharomyces cerevisiae [1]; [5]) | protein stability index (Saccharomyces cerevisiae [1]; [6]) | protein stability index (Saccharomyces cerevisiae [1]; [7]) | protein stability index (Saccharomyces cerevisiae [1]; [8]) | protein stability index (Saccharomyces cerevisiae [1]; [9]) | protein stability index (Saccharomyces cerevisiae [2])
1 | SSVCVLVSCVLG | 0.462 ± 0.019 | 0.5241 ± 0.0032 | 0.375 ± 0.037 | 0.5353 ± 0.0013 | 0.363 ± 0.013 | 0.382 ± 0.022 | 0.5117 ± 0.00052 | 0.4818 ± 0.0031
2 | GIKLNVVYILLG | 0.486 ± 0.045 | 0.544 ± 0.025 | 0.377 ± 0.03 | 0.644 ± 0.017 | 0.34 ± 0.041 | 0.35 ± 0.05 | 0.536 ± 0.0097 | 0.482 ± 0.072
3 | AYPAHQLLVSCL | 0.509 ± 0.012 | 0.511 ± 0.021 | 0.405 ± 0.026 | 0.5435 ± 0.0014 | 0.351 ± 0.016 | 0.384 ± 0.038 | 0.5 ± 0.024 | 0.482 ± 0.028
4 | SPGGALVFFVLV | 0.552 ± 0.038 | 0.5998 ± 0.0056 | 0.44 ± 0.023 | 0.617 ± 0.0083 | 0.391 ± 0.012 | 0.431 ± 0.027 | 0.606 ± 0.017 | 0.467 ± 0.0054
5 | RERRISRIPCLS | 0.594 ± 0.058 | 0.678 ± 0.01 | 0.526 ± 0.018 | 0.6867 ± 0.0014 | 0.174 ± 0.0033 | 0.185 ± 0.035 | 0.362 ± 0.028 | 0.276 ± 0.057
6 | MALAVRVVVCGA | 0.0333 ± 0.0083 | 0.0649 ± 0.022 | 0.125 ± 0.025 | 0.131 ± 0.0024 | 0.0868 ± 0.014 | 0.107 ± 0.02 | 0.107 ± 0.021 | 0.184 ± 0.043
7 | FLVCTFCRWVWL | 0.476 ± 0.079 | 0.6 ± 0.039 | 0.448 ± 0.028 | 0.606 ± 0.025 | 0.165 ± 0.023 | 0.162 ± 0.012 | 0.249 ± 0.018 | 0.233 ± 0.056
8 | IRFFLIVFCFLR | 0.157 ± 0.015 | 0.131 ± 0.017 | 0.251 ± 0.019 | 0.286 ± 0.041 | 0.273 ± 0.0057 | 0.203 ± 0.025 | 0.226 ± 0.022 | 0.284 ± 0.021
9 | CLLLILCFLCVR | 0.382 ± 0.0078 | 0.355 ± 0.017 | 0.343 ± 0.021 | 0.4415 ± 0.00095 | 0.364 ± 0.028 | 0.321 ± 0.02 | 0.401 ± 0.016 | 0.359 ± 0.026
10 | KLMGWFVGVVAR | 0.494 ± 0.0073 | 0.49 ± 0.019 | 0.355 ± 0.025 | 0.535 ± 0.011 | 0.323 ± 0.0045 | 0.351 ± 0.039 | 0.517 ± 0.033 | 0.442 ± 0.015
11 | VFCCHSSRFVFA | 0.642 ± 0.027 | 0.6789 ± 0.0065 | 0.525 ± 0.025 | 0.6858 ± 0.0031 | 0.49 ± 0.016 | 0.501 ± 0.028 | 0.623 ± 0.019 | 0.414 ± 0.022
12 | RVCCLSFFFVFL | 0.445 ± 0.022 | 0.581 ± 0.054 | 0.398 ± 0.036 | 0.581 ± 0.014 | 0.427 ± 0.0094 | 0.391 ± 0.0052 | 0.551 ± 0.027 | 0.517 ± 0.024
13 | FFALFLPLACFC | 0.4689 ± 0.0012 | 0.4432 ± 0.004 | 0.38 ± 0.031 | 0.4899 ± 0.0037 | 0.353 ± 0.023 | 0.386 ± 0.014 | 0.455 ± 0.0076 | 0.429 ± 0.013
14 | YLMVSKMSLRIG | 0.602 ± 0.021 | 0.643 ± 0.0084 | 0.532 ± 0.021 | 0.609 ± 0.017 | 0.296 ± 0.054 | 0.306 ± 0.026 | 0.516 ± 0.025 | 0.401 ± 0.0052
15 | VGLWFLCSLAFS | 0.444 ± 0.0079 | 0.478 ± 0.015 | 0.34 ± 0.037 | 0.5344 ± 0.0014 | 0.308 ± 0.015 | 0.346 ± 0.023 | 0.495 ± 0.007 | 0.401 ± 0.006
16 | AFRFHTYFLLLC | 0.0472 ± 0.006 | 0.0404 ± 0.0043 | 0.153 ± 0.04 | 0.184 ± 0.0066 | 0.0686 ± 0.021 | 0.0553 ± 0.012 | 0.0696 ± 0.038 | 0.0812 ± 0.019
17 | FLFLFLFPFSLI | 0.525 ± 0.047 | 0.571 ± 0.0084 | 0.476 ± 0.016 | 0.567 ± 0.009 | 0.393 ± 0.0097 | 0.386 ± 0.0079 | 0.4997 ± 0.0009 | 0.431 ± 0.0054
18 | FGVVRVSIPVGV | 0.211 ± 0.024 | 0.203 ± 0.02 | 0.227 ± 0.038 | 0.3584 ± 0.0023 | 0.184 ± 0.005 | 0.233 ± 0.024 | 0.316 ± 0.007 | 0.368 ± 0.012
19 | CVVLCLFCWCML | 0.358 ± 0.004 | 0.4266 ± 0.0042 | 0.314 ± 0.019 | 0.451 ± 0.007 | 0.32968 ± 0.00016 | 0.305 ± 0.021 | 0.425 ± 0.0082 | 0.347 ± 0.048
20 | VWLFSWSVVGGT | 0.436 ± 0.037 | 0.5425 ± 0.0026 | 0.369 ± 0.017 | 0.523 ± 0.012 | 0.369 ± 0.014 | 0.376 ± 0.0048 | 0.5069 ± 0.00074 | 0.433 ± 0.02

Row | Sequence | protein stability index (Saccharomyces cerevisiae [1]; [3]) | protein stability index (Saccharomyces cerevisiae [1]; [4]) | protein stability index (Saccharomyces cerevisiae [1]; [5]) | protein stability index (Saccharomyces cerevisiae [1]; [6]) | protein stability index (Saccharomyces cerevisiae [1]; [7]) | protein stability index (Saccharomyces cerevisiae [1]; [8]) | protein stability index (Saccharomyces cerevisiae [1]; [9]) | protein stability index (Saccharomyces cerevisiae [2])
21 | FLIFVVIGGVGL | 0.259 ± 0.0043 | 0.395 ± 0.016 | 0.281 ± 0.027 | 0.466 ± 0.013 | 0.2268 ± 0.0012 | 0.276 ± 0.023 | 0.435 ± 0.057 | 0.2837 ± 0.0028
22 | EFFTLYDLVRFI | 0.742 ± 0.042 | 0.79 ± 0.05 | 0.669 ± 0.048 | 0.791 ± 0.05 | 0.192 ± 0.00011 | 0.232 ± 0.013 | 0.434 ± 0.04 | 0.38 ± 0.025
23 | LDRLTTWTLIVR | 0.457 ± 0.031 | 0.455 ± 0.011 | 0.379 ± 0.026 | 0.524 ± 0.0076 | 0.413 ± 0.0057 | 0.365 ± 0.021 | 0.482 ± 0.0083 | 0.471 ± 0.031
24 | VVVWLFRIKSNV | 0.46 ± 0.012 | 0.586 ± 0.0096 | 0.358 ± 0.059 | 0.576 ± 0.005 | 0.279 ± 0.0084 | 0.318 ± 0.022 | 0.497 ± 0.026 | 0.425 ± 0.025
25 | DKKPMKKILLCI | 0.451 ± 0.0075 | 0.565 ± 0.068 | 0.494 ± 0.025 | 0.6477 ± 0.0033 | 0.0933 ± 0.02 | 0.0973 ± 0.0084 | 0.104 ± 0.0016 | 0.151 ± 0.029
26 | LMIVSVRLLFFL | 0.229 ± 0.049 | 0.39 ± 0.0024 | 0.232 ± 0.029 | 0.419 ± 0.015 | 0.1617 ± 0.00049 | 0.172 ± 0.019 | 0.282 ± 0.014 | 0.2661 ± 0.002
27 | VLVWLRLRVGLR | 0.212 ± 0.025 | 0.322 ± 0.016 | 0.218 ± 0.045 | 0.381 ± 0.0098 | 0.199 ± 0.0058 | 0.213 ± 0.021 | 0.3468 ± 0.0019 | 0.3002 ± 0.00052
28 | RWRRWCVVLFVV | 0.197 ± 0.043 | 0.307 ± 0.021 | 0.301 ± 0.025 | 0.456 ± 0.0067 | 0.0648 ± 0.015 | 0.0689 ± 0.013 | 0.0816 ± 0.01 | 0.117 ± 0.012
29 | VCVRLVHCLVLV | 0.2359 ± 0.0019 | 0.2514 ± 0.0021 | 0.208 ± 0.02 | 0.332 ± 0.0068 | 0.177 ± 0.01 | 0.174 ± 0.017 | 0.283 ± 0.014 | 0.265 ± 0.031
30 | LSRELRFVGFYH | 0.637 ± 0.07 | 0.751 ± 0.019 | 0.656 ± 0.017 | 0.717 ± 0.025 | 0.222 ± 0.004 | 0.229 ± 0.054 | 0.517 ± 0.043 | 0.318 ± 0.066
31 | VFFPCRLLPLLF | 0.517 ± 0.0066 | 0.585 ± 0.0073 | 0.479 ± 0.03 | 0.595 ± 0.026 | 0.1658 ± 0.0011 | 0.167 ± 0.014 | 0.286 ± 0.01 | 0.27 ± 0.023
32 | RGDCFLVLCVWR | 0.499 ± 0.022 | 0.535 ± 0.015 | 0.366 ± 0.032 | 0.563 ± 0.017 | 0.348 ± 0.0047 | 0.362 ± 0.026 | 0.541 ± 0.0062 | 0.485 ± 0.0086
33 | GGRFVWIVRAVG | 0.6323 ± 0.0024 | 0.727 ± 0.017 | 0.611 ± 0.021 | 0.73 ± 0.022 | 0.233 ± 0.004 | 0.272 ± 0.037 | 0.568 ± 0.057 | 0.471 ± 0.014
34 | WCVCVSMRMIAI | 0.15 ± 0.015 | 0.193 ± 0.008 | 0.201 ± 0.011 | 0.175 ± 0.013 | 0.202 ± 0.0073 | 0.187 ± 0.002 | 0.159 ± 0.013 | 0.165 ± 0.0094
35 | CSFPTFRSLLLL | 0.532 ± 0.018 | 0.647 ± 0.014 | 0.502 ± 0.018 | 0.671 ± 0.014 | 0.218 ± 0.0036 | 0.23 ± 0.021 | 0.438 ± 0.058 | 0.3 ± 0.078
36 | LLAREILVIVAV | 0.181 ± 0.0035 | 0.229 ± 0.017 | 0.207 ± 0.032 | 0.32 ± 0.017 | 0.166 ± 0.0048 | 0.204 ± 0.015 | 0.271 ± 0.0034 | 0.307 ± 0.0051
37 | LLLPVFLVFSVS | 0.295 ± 0.046 | 0.417 ± 0.005 | 0.269 ± 0.037 | 0.482 ± 0.012 | 0.2258 ± 0.0016 | 0.256 ± 0.03 | 0.47 ± 0.058 | 0.326 ± 0.034
38 | RVCYQIAISLPI | 0.546 ± 0.0067 | 0.571 ± 0.027 | 0.438 ± 0.012 | 0.552 ± 0.013 | 0.428 ± 0.022 | 0.432 ± 0.02 | 0.542 ± 0.03 | 0.495 ± 0.016
39 | KTRQLINKITQM | 0.6601 ± 0.00086 | 0.693 ± 0.019 | 0.62 ± 0.018 | 0.7358 ± 0.0036 | 0.137 ± 0.024 | 0.153 ± 0.031 | 0.288 ± 0.031 | 0.254 ± 0.072
